In paper PMC4655416 one finds kcat of PPH-5 towards the model peptide KRpTIRR (50 μM) with 3 μM Hsp90-MC and stoichiometry N (PPH-5 per CeHsp90-MC dimer) data, which are given here for one molecule.

Test [1] addresses CeHsp90-MC (middle and C-terminal domains of C. elegans Hsp90) (C. elegans).
Test [2] shares this target. Briefly: AUC; sedimentation velocity with UV/VIS absorbance optics (OD280); PPH-5 titrated to a constant concentration of CeHsp90 (4 μM) or CeHsp90-MC (3.5 μM); global fit to sequential binding of a first and second PPH-5.

B1: protein phosphatase 5 from C. elegans (PPH-5) (enzyme)
chain: MAATITDDIVATVLESIEEKSYEDEKEKAGMIKDEANQFFKDQVYDVAADLYSVAIEIHPTAVLYGNRAQAYLKKELYGSALEDADNAIAIDPSYVKGFYRRATANMALGRFKKALTDYQAVVKVCPNDKDARAKFDECSKIVRRQKFEAAISTDHDKKTVAETLDINAMAIEDSYDGPRLEDKITKEFVLQLIKTFKNQQKLHKKYAFKMLLEFYNYVKSLPTMVEITVPTGKKFTICGDVHGQFYDLCNIFEINGYPSETNPYLFNGDFVDRGSFSVETIFTMIGFKLLYPNHFFMSRGNHESDVMNKMYGFEGEVKAKYTQQMCDMFTETFCWLPLCHLINEKIFVCHGGLFKEDGVTLEDIRKTDRNRQPPDEGIMCDLLWSDPQPINGRSPSKRGVGCQFGPDVTSKWCETNGIEYVVRSHEVKPEGYEMHHNGQCFTVFSAPNYCDQMNNKGAFITITGDNLTPRFTPFDAVPHPKLPPMAYANSLFGFN
With B1, in test [1], the kcat of PPH-5 towards the model peptide KRpTIRR (50 μM) with 3 μM Hsp90-MC amounted to 0.161 s⁻¹. This molecule also showed a stoichiometry N (PPH-5 per CeHsp90-MC dimer) in test [2] of 2.
